Measurements from US20120065146A1 (published 2012).
Starred links: 1 amine or outer side, 2 acyl side, 3 side chain; linkers in the order of their positions; H or OH if unused. Non-standard residues stand in square brackets, D forms with d. No end group written: not given here. F2Pmab = 2-amino-4,4-difluoro-3-methyl-4-phosphobutanoic acid, in place of p-Thr, C[C@H]([C@H](N[*:1])C(=O)[*:2])C(F)(F)P(=O)(O)O; Abu(3R-Me,4-PO3H2) = C[C@@H](CP(=O)(O)O)[C@H](N)C(=O)O; pT = C[C@@H](OP(=O)(O)O)[C@H](N)C(=O)O

Assays:
Flag-Plk2(K607R, Y626F) = molecular target: T1, Flag-Plk2(K607R, Y626F) (UniProt Q9NYY3 1-685); test: pull-down of transfected HeLa lysate with immobilised MQSpTPL (FIG. 15B)
T1 construct: not shown: Flag tag
T1 sequence (Q9NYY3 whole entry K607R/Y626F): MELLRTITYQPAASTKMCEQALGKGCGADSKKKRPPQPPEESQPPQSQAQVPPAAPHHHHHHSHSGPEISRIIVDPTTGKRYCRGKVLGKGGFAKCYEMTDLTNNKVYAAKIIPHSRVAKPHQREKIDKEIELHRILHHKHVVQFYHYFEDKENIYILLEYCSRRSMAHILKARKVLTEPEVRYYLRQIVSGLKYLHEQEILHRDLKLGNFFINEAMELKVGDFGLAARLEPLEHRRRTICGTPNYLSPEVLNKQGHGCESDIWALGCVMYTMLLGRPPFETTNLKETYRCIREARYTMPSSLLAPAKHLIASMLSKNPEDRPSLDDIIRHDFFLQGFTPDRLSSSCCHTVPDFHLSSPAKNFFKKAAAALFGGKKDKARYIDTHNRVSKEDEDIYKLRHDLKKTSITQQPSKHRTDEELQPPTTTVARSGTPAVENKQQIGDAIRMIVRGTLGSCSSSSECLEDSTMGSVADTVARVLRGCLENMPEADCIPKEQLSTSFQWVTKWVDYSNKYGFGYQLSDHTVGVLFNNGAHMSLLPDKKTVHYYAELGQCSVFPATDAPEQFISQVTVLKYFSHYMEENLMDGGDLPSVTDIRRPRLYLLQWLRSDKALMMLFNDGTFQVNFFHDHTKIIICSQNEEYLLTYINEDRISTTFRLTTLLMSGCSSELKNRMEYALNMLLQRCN

[1] = molecular target: T2, Flag-Plk2(L606F, K607R, 5608T, D609R, K610S, Y626F, H627Q) (UniProt Q9NYY3 1-685); test: as above
T2 construct: 5608T is read as S608T; not shown: Flag tag
T2 sequence (Q9NYY3 whole entry L606F/K607R/S608T/D609R/K610S/Y626F/H627Q): as the sequence (Q9NYY3 whole entry K607R/Y626F) above, with L606F, S608T, D609R, K610S, H627Q counted along it

Flag-Plk3(K52R) [2] = molecular target: T3, Flag-Plk3(K52R) (UniProt Q9H4B4 40-646, K52R); test: assay not given; pull-downs of Examples 3 and 6
T3 construct: A gift construct; K52 may be counted on another entry than the printed human one; not shown: Flag tag
T3 sequence (Q9H4B4 40-646 K91R): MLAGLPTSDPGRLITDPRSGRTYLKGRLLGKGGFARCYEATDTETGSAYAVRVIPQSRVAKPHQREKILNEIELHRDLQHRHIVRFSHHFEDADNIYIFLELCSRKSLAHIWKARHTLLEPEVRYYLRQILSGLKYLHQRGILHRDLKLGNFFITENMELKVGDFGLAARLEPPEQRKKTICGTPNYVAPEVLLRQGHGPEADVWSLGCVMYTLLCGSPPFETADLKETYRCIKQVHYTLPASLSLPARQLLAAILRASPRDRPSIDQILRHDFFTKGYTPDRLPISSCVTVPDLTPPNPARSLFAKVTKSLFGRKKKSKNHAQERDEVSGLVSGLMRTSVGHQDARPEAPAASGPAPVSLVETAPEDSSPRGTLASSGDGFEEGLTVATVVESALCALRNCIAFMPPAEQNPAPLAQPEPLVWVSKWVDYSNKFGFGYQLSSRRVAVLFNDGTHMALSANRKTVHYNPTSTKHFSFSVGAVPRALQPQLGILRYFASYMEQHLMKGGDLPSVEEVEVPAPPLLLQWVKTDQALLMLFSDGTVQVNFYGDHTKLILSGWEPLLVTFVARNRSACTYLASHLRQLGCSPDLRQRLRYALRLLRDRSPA

HA-EGFP-Plk1 [3] = molecular target: T4, HA-EGFP-Plk1 (UniProt P53350 1-603); test: ELISA competition (FIG. 16A)
T4 construct: also called full-length Plk1 (ELISA); not shown: HA tag and EGFP
T4 sequence (P53350 whole entry): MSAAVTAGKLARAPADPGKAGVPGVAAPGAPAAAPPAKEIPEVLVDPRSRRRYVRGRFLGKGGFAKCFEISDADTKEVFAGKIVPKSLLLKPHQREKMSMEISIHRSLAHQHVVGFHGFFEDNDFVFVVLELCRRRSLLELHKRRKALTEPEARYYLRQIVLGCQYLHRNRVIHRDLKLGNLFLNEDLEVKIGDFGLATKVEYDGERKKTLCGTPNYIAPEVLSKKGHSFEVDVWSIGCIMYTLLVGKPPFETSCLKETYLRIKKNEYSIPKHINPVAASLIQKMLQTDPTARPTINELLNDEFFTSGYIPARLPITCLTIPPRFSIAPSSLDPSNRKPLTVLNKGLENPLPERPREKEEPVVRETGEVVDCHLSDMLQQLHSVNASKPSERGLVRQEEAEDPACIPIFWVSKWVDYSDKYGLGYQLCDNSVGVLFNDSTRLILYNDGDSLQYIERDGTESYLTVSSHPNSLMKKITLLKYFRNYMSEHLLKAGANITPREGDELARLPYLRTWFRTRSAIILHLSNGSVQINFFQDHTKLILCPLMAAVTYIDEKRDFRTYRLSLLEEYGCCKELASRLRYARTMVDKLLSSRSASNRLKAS

HA-EGFP-Plk1 [4] = molecular target: T4, HA-EGFP-Plk1; test: ELISA competition on immobilised biotinylated p-T78 9-mer (FIG. 16A)
[5] = molecular target: T5, Plk1 (endogenous, in mitotic HeLa cell lysates) (UniProt P53350 2-603); test: pull-down from mitotic HeLa lysate with bead-immobilised peptide (FIG. 13A)
T5 construct: Endogenous full-length protein in total lysate of nocodazole-arrested HeLa cells; also called polo-like kinase 1
T5 sequence (P53350 2-603 limits assumed): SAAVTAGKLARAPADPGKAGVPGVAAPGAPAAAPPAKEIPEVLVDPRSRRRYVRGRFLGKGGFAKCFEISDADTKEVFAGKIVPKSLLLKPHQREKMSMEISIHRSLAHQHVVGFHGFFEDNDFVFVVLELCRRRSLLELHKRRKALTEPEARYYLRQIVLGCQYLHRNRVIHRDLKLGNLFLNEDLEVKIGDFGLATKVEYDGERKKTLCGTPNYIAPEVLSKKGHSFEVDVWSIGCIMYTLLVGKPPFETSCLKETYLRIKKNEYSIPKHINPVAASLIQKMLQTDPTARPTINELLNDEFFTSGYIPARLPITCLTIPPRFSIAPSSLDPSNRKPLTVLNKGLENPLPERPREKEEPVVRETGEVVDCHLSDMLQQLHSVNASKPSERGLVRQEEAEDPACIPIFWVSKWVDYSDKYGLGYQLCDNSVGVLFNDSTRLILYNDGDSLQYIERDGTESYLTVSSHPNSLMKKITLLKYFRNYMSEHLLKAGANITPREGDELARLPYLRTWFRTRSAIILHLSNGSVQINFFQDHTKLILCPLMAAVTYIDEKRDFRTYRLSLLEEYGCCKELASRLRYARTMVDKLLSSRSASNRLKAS

Flag-Plk3(K52R) [6] = molecular target: T3, Flag-Plk3(K52R); test: pull-down from mixed HeLa lysates, anti-Flag blot (FIG. 4B)
[7] = molecular target: T5, Plk1 (endogenous, in mitotic HeLa cell …); test: pull-down from mitotic HeLa lysate with bead-immobilised peptide (FIG. 4A)

B1: MQSpTPL (peptide)
peptide: MQS[pT]PL
modifications: also: in pull-downs N-terminal Cys-(CH2)6 linker cross-linked to beads
notes: also called synthetic optimal peptide
binding result (Flag-Plk2(K607R, Y626F)): no binding | binding result [1]: no binding

B2: PLHSpT (peptide)
peptide: PLHS[pT]
modifications: also: Ac and C-terminal amide in soluble form, N-terminal Cys-(CH2)6 linker in pull-down form
notes: Derived from the Thr78 region of PBIP1; also called Ac-PLHSpT-NH2; C-(CH2)6-PLHSpT
binding result (Flag-Plk3(K52R) [2]): no binding

B3: PLHS-F2Pmab-A (peptide)
peptide: PLHS[F2Pmab]A
modifications: also: in pull-downs N-terminal Cys-(CH2)6 linker cross-linked to beads
notes: also called C-(CH2)6-PLHS-F2Pmab-A
binding result (HA-EGFP-Plk1 [3]): binds

B4: PLHA-F2Pmab-A (peptide)
peptide: PLHA[F2Pmab]A
modifications: also: in pull-downs N-terminal Cys-(CH2)6 linker cross-linked to beads
notes: also called F2Pmab(S77A); C-(CH2)6-PLHA-F2Pmab-A
binding result (HA-EGFP-Plk1 [4]): no binding (tested: 1000-fold higher molar concentrations) | binding result [5]: no binding

B5: PLHS-Pmab (peptide)
peptide: PLHS[Abu(3R-Me,4-PO3H2)]
modifications: also: N-acetylated in soluble form, N-terminal Cys-(CH2)6 linker in pull-down form
notes: also called C-(CH2)6-PLHS-Pmab
binding result (Flag-Plk3(K52R) [6]): no binding

B6: PLHA-Pmab (peptide)
peptide: PLHA[Abu(3R-Me,4-PO3H2)]
modifications: also: N-acetylated in soluble form
notes: also called Pmab(S77A); C-(CH2)6-PLHA-Pmab
binding result [7]: no binding
